± gives the uncertainty stated by the source.
Assay: amyloid nucleation score (Sup35N fusion, yeast selection) (log enrichment); library NNK1; higher = more nucleation; inactive = no reads after selection
Method in brief: (§1)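 Sup35N was fused to peptides of 20 random codons and expressed in psi-negative yeast, which were induced with 100 μM copper sulfate for 24 hours and then grown on medium lacking adenine and uracil for 7 days at 30°C. Plasmid inserts from input and output were sequenced on Illumina. The nucleation score is the DiMSum log enrichment of output over input reads, centred on the mode score of non-aggregating sequences. Sequences with under 100 input reads were left out, and random libraries had three technical output replicates.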

Substance | amyloid nucleation score
VYYLGVKAFLFNSSF | 0.824 ± 0.54
TVTLGVPRQCAGTCRMVSLN | inactive
ESCVRYRSACSMFV | 0.902 ± 0.47
FVMFLPIYEF | -0.35 ± 0.8
MRLCPEPASKSDMPFSRDLR | 0.268 ± 1.4
WLPMPSV | 0.411 ± 0.47
NLHVQGVTRNGC | 3.84 ± 0.076
SILLWDLKANF | 0.346 ± 0.29
KFSFCKS | 0.207 ± 0.31
KVKRFDGCSSRSKHVVTEI | 4.13 ± 0.076
GIYTFFVGTKFC | 0.65 ± 0.5
IDVRI | -0.152 ± 0.43
PHMMELSVDTKGNVLKVGSH | 0.055 ± 0.52
GNFCFPMAYTGLVFGEMLSF | 0.1 ± 0.24
LNGPTVTKECRGAYMVMPGT | -0.431 ± 1.1
SRRWGLN | inactive
RSYSSLSR | 0.792 ± 0.58
RNNIFFF | 7.399 ± 0.059
PRKACTIGWLGSINLERGEE | -0.681 ± 0.74
LSRFEQGHELLHKSVIYCEV | -0.304 ± 0.32
SHGSTLLARYCRINGWPATP | -0.167 ± 0.71
SSDMGFFARYLSLNH | 0.512 ± 0.55
RFNWFL | -0.285 ± 0.86
ALVGMRQITEILVTRDRQWG | 0.332 ± 0.27
GRVDWMCEYLKLMRSVGWSR | 0.545 ± 0.41
DGIRSWENSMVIYGI | -0.091 ± 0.4

Substance | amyloid nucleation score
SRYLDIEVLSHGMNWMTFQT | -0.005 ± 0.77
VYRVAKASM | -0.35 ± 1.9
HFEQGYAHSSYMWVLGRPMW | 2.86 ± 0.087
RGYSGTTTHAATATKLS | 1.56 ± 0.78
HVFPHLWKYYCMAVALVFLR | 1.38 ± 0.61
RCKELDCSPDSGITVTRSLI | 1.12 ± 0.63
GSCGKGHLSPRALLFTHSWQ | -0.446 ± 0.61
SIYSFDHYGANRFLFYGGLS | 0.358 ± 0.62
CTGSCVRRVCGGFIEADIRY | -0.28 ± 0.41
INLGVMWGVPTELLVCNF | inactive
RGSNAMDYSEVFCWMYNDLL | 1.11 ± 0.58
CARSVCKSQYSSMSMPYLIV | 0.782 ± 0.39
NYYCRDVI | 0.392 ± 0.3
RCDRTGQRRALDRGSCFLVE | -0.46 ± 1.1
RKYEGGRAKVWHGPCSVS | 1.07 ± 0.76
KRNRYTKGTHHTSFMNFYFC | 8.37 ± 0.066
LSLNIYCMRS | 7.155 ± 0.045
MSSVNWYANDLLSVLGIGSR | -0.202 ± 1.2
CLDNWLGGHNSLSSYSG | 0.538 ± 0.37
SLLTRDVYNRRAR | -0.562 ± 0.36
KMFTGNSEFFCFLTTVKLDR | -0.068 ± 0.61
MCDIFAMLLIYQFDGKGTV | 0.151 ± 0.17
DIPYVFLLFLQECDNVFLCH | 2.54 ± 0.17
LLRLLVRAVMFFWAWGSRGA | inactive
IYPILVMSASQA | 0.549 ± 0.69
MSFTSAY | -0.238 ± 0.56

Substance | amyloid nucleation score
IEAYVINGKLDWALWFRGDE | -0.407 ± 0.85
CFVHLLGIIYLSLDRNYCRE | 0.272 ± 0.57
TDQVWMLVSRRFKHFRHIEV | 1.38 ± 0.2
LLKSKGGLPILRPCWLPFWQ | 0.066 ± 0.75
GHDLSVPWRTDWLRGL | 0.177 ± 1.2
TDCHALRMWIFAGFWWHNFS | -1.04 ± 0.84
RFISVMSLSLLNNNFIEAHV | 0.55 ± 0.6
VNVCESTPPDVESRGVCDAG | 2.06 ± 0.1
LYASASADHSRQRREGTPVL | -0.54 ± 0.59
FGPCMRFDCCNRGST | 4.72 ± 0.082
FIIITYFGLGKTVYARRKCC | -1.92 ± 2.7
LVDSPCQRSYTRRPHTHWR | 0.15 ± 0.34
RFLLLPAHPGPGVSMVYRYL | 0.077 ± 0.9
LVPSWRVFVQHLGLFRAL | 0.333 ± 0.7
ATSPLCCRH | 0.022 ± 0.28
NPSIPCPQAACNMWY | 0.819 ± 0.36
YWNRRYIGTPLNM | -1.73 ± 2.7
MVDPRVTS | -0.86 ± 1.1
NIKEKG | 0.635 ± 0.44
FLLNSPQNASYSPHRRLAFD | -1.38 ± 0.92
LGMWRCKPRTTLAWSYLDPV | 0.179 ± 0.71
NMINLMGTKVDMYCRRVRGI | -1.53 ± 0.84
TASLLLTLLFGLPEGLLW | 0.975 ± 0.3
SHEGIIMLMLTHQFSW | 2.07 ± 0.14
KLAIYFILAACSRNVVED | 0.768 ± 0.36
DYNIVYYNLYNTYINNYQSF | 7.72 ± 0.048

Substance | amyloid nucleation score
LCQVTG | 0.391 ± 0.48
FKYSGRCWGANECIKNYNYV | 0.07 ± 0.39
SVLTSMSITCWWKFWVGMSM | -0.731 ± 1.4
CMAGRNSFKLYMRRFNEENY | inactive
RPVWHSFHMVFWNSASY | 0.172 ± 0.45
FEYVIPRVTKIVRSTDRRGS | -0.548 ± 1.7
ESFLASMLRIGMCLPKQVMW | -0.096 ± 0.66
PWQRSSCLGTLVLVTNYDRY | 0.058 ± 0.44
KVLILCAT | 1.1 ± 0.62
MVIPFFLSSLLSL | -0.835 ± 0.7
YFRVLGN | -0.011 ± 0.3
LMFSDGWFLNGEISPWVGF | -0.393 ± 0.71
NSLKCVRSIVKRYSACHRV | 0.387 ± 0.5
GVVFPWSVLMFSCSSCLAVP | 0.605 ± 0.61
HTTSICVRELPDQEVWTAVN | 0.109 ± 0.54
YLLPEPKQCVSPE | 0.625 ± 0.5
YLFGGSWDCGLYISGIPCWS | 1 ± 0.48
LLTSMSSGLVDYR | inactive
SYYDSQYGLYGESVCL | 0.738 ± 0.72
AACLCLYAFGRYVVTRCYGR | -0.068 ± 0.69
FDIMNDIK | 0.658 ± 0.52
MSLYTDNWGNKGRTSLNYSS | 0.455 ± 0.51
CRMGMLYEISQC | 0.743 ± 0.76
LYMYSLSFLMGGNANHRLGM | 1.98 ± 0.16
CERQNYVP | 0.326 ± 1.2
RDCWQ | -0.571 ± 0.3

Substance | amyloid nucleation score
NWEWAFRCPLWCLWDYRSTM | 0.751 ± 0.57
FGLQWSSKAACVLTCKQSLR | inactive
IMLTGLRLHVVDGEKLPMTS | 1.01 ± 0.71
LYVMRKSDMMLDFRNAANVG | -0.142 ± 0.23
VDVCCDGYRYLW | -0.754 ± 0.39
ALVRL | 0.085 ± 0.46
FRGTVFSW | -0.26 ± 0.69
LWGRGCMCWVVVARCFWPLR | -0.153 ± 1.4
VVNGTMFINPCYVQGRCKEM | 4.63 ± 0.067
RSLCHAQRFGWMC | -1.7 ± 1
PNTYGGIMECYV | -0.233 ± 0.42
RIGRKDLLFWVPTCRHVLLL | 0.416 ± 0.28
RPNCIVINGVKWYSAYWIGI | -0.915 ± 0.67
GSCLISRT | 1.02 ± 0.5
DSNFVTGWMTSIMLRVGVLR | 0.514 ± 1.2
SQVMSRLLGKFKLY | -0.609 ± 0.32
NTYDHMTYNRGFRSM | inactive
ILPRNFVSTNVANRFIEGSS | 0.932 ± 0.66
HLDGSVISNSMVNIVFLSLV | 5.71 ± 0.072
FCDILQVLVCYGLLKRVLKV | -0.296 ± 0.3
FNYFYVLYS | 5.35 ± 0.074
RLRVVL | -0.537 ± 0.64
LSSFMAAGVSLMCNTFLIWH | 0.729 ± 0.51
NVGRSAICVRSCRMSLVFDG | 0.11 ± 0.35
TICSSTFNFCSCFVTYLRMG | 4.83 ± 0.072
YIHDQIIALFKQDLFSGSLH | 0.961 ± 0.69

Substance | amyloid nucleation score
VYRNASLCVSEVL | 0.211 ± 0.97
NVTCSVISNGNLSEFDVFVI | 0.122 ± 0.75
GVSQNKCMPVWCVR | 0.504 ± 0.38
PFTRVGLDMYLDDSVKKGWD | -0.528 ± 0.36
NIINLHYKYLVADVWGLKMF | -0.008 ± 0.93
LYVEYKRAMCVMGVSLWVN | 0.224 ± 0.19
KLEMARAIKFFGYDTLETAF | 1.1 ± 0.71
VGWFSNESWYLAVNDYGPA | 0.335 ± 0.3
FNYYSA | -0.012 ± 0.48
SWRHMFYGVILGWHICSSGS | 0.925 ± 0.28
CRLGNEKGRLKSWQNRSNIC | -0.22 ± 0.59
TCYLSDSLASY | -0.328 ± 0.54
RVLCICFEYINHRAGGSKSF | -0.08 ± 0.95
ACTYYIWVLSCAGPRAGGKE | 7.257 ± 0.048
VLDFLYILCVTLANDFLKGW | 0.961 ± 0.76
DSRCGPM | inactive
NDVRYLLDMDLLASSADYFM | -0.732 ± 1.1
AFLTQTSHSQTT | 0.048 ± 0.74
NSRSLFFYDSYVAGWYN | 0.542 ± 0.31
SHPSKRLRTSKNVCACATNP | -0.12 ± 0.4
CTGPMD | 0.055 ± 0.57
VDKNMFI | -0.021 ± 1.2

Assay: amyloid nucleation score (Sup35N fusion, yeast selection) (log enrichment); library NNK2; higher = more nucleation; inactive = no reads after selection
Method in brief: as §1

Substance | amyloid nucleation score
LGHFSFD | inactive
MHRSCGEIACTKKVAIEMKD | 1.34 ± 0.18
VVHGIETIIVDPDRALVGDG | -0.356 ± 0.32
VWFMEVNVKYECTPSYEGRL | 3.81 ± 0.073
KRILS | -0.13 ± 0.34
ECYETRTSMEY | -0.102 ± 0.56
TGLGLIGLHSLVKVSRV | -0.255 ± 0.65
HDKVCTSLRVVDQCLRPGH | 0.608 ± 0.38
IPYEKPHRYIVNWECVAGSM | 0.621 ± 0.43
TLSHPWADLLVSETHMVYR | -0.381 ± 1.1
ASRMPSGVRSFWAKPR | 0.321 ± 0.32
DYLVSMTVNSASLFRYIERR | 5.209 ± 0.029
GSVGGSGIAACGTSDGGTVR | 2.02 ± 0.27
YCFFKVKTDLKTMCELGSTA | -0.122 ± 0.55
MIGVYDGLRHNVEQGFVWCE | 0.419 ± 0.51
MCSMCIVLPPVCVLKAKVYT | 3.69 ± 0.081
YCVLMNS | -0.173 ± 0.41
VVSILRLDSVGRVVIEAWVR | 0.223 ± 0.77
FMVVC | 0.249 ± 0.39
ILVWLGQTEEASVDRRAQHT | 0.43 ± 0.32

Reference: the supplement of paper PMC12042874
